Test results published in patent US20190248863A1.
Positions of bridges follow the written chain, without caps; N, C: chain ends. Chains are numbered I, II in the order given. No end group written: not given here.

B1: wild-type human relaxin 2 (WT-RLX) (ligand)
chain 1: QLYSALANKCCHVGCTKRSLARFC
chain 2: DSWMEEVIKLCGRELVRAQIAICGMSTWS
modifications: disulfide I:10-I:15, I:11-II:11, I:24-II:23
B2: RLX-A-AQ1-20KPEG (ligand)
chain 1: XLYSALANKCCHVGCTKRSLARFC
chain 2: ASWMEEVIKLCGRELVRAQIAICGMSTWS
modifications: here or on the partner: para-acetylphenylalanine (pAcF, X) at position 1 of the A chain, linked to a 20 kDa PEG via an oxime linkage

Target: human RXFP2 (human), Q8WXD0
Sequence (Q8WXD0 whole entry): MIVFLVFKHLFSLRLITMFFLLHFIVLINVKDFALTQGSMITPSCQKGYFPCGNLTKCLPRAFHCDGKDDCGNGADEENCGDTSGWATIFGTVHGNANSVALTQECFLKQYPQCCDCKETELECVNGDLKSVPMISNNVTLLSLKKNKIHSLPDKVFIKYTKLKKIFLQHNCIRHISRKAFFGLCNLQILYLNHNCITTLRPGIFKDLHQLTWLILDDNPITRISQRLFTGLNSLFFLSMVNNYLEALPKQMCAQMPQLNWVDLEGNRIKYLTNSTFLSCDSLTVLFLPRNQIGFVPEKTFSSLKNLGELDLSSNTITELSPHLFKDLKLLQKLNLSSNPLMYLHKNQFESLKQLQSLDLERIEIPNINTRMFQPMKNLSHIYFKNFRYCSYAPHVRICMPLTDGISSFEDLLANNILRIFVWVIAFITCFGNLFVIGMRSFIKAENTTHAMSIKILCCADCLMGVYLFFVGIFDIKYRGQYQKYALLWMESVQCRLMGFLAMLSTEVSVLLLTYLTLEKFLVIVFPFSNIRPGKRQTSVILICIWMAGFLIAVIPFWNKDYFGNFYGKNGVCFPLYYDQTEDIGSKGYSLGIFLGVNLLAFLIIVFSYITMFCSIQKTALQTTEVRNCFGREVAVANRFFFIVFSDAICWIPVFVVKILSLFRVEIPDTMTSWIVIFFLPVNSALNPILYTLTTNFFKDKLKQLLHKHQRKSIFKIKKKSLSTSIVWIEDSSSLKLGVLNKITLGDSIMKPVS
Experiment: cell-based or functional assay

Binder	cAMP Assay EC50 (nM), human RXFP2/CHO-K1 cells	fold less potent than INSL3 (cAMP assay EC50, human RXFP2/CHO-K1 cells)	Maximal cAMP stimulation by RLX-A-AQ1-20KPEG compared to WT-RLX (percent), AVG, hRXFP2	Potency Ratio (RLX-A-AQ1-20KPEG/WT-RLX), cAMP assay	RLX-A-AQ1-20KPEG Potency Ratio (hRXFP1-1.0), cAMP assay
B1	5.5 nM	10 fold	–	–	–
B2	174 nM	–	99%	32 fold	54 fold
